Kd data for one substance are collected here from publication doi:10.1101/2019.12.20.884148.

This test addresses Galectin-3 (R&D Systems) (UniProt P17931). The experiment in a line: SPR. A general note: In SPR one partner is held on a chip, and binding of the other changes the refractive index at the surface.

The Kd is the equilibrium constant for the complex coming apart. Low values mean tighter binding, high ones weaker binding.

Chain of UniProt P17931 (P17931 whole entry): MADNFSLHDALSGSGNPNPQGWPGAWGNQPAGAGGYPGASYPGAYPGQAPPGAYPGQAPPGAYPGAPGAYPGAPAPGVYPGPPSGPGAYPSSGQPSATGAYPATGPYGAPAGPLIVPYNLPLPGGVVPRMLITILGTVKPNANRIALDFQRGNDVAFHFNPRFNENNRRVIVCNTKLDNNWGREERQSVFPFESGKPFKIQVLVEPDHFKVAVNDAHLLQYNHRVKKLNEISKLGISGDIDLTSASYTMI

As to “Bovine lubricin (bPRG4) (natural protein)”, the Kd amounted to 3.8 µM.
